Changes are numbered by the printed parent chain. Where no end group is shown, it is not given here. fluorescein = fluorescein label at the N-terminus
How the values were obtained:
[1] = biological target: Ssa1 (Saccharomyces cerevisiae, UniProt P10591); test: fluorescence polarization, displacement of ATP-FAM; assay type: binding; conditions: 50 uM ATP, 1 uM Ssa1, 20 nM ATP-FAM, pH 7.5, 25 °C
[2] = biological target: T1, Msi3 (Candida albicans, UniProt Q96VB9); test: limited trypsin digest; assay type: binding; conditions: 1 mM ATP, pH 7.5, 10 mM Mg(OAc)2, 25 °C
T1 sequence (Q96VB9 1-701): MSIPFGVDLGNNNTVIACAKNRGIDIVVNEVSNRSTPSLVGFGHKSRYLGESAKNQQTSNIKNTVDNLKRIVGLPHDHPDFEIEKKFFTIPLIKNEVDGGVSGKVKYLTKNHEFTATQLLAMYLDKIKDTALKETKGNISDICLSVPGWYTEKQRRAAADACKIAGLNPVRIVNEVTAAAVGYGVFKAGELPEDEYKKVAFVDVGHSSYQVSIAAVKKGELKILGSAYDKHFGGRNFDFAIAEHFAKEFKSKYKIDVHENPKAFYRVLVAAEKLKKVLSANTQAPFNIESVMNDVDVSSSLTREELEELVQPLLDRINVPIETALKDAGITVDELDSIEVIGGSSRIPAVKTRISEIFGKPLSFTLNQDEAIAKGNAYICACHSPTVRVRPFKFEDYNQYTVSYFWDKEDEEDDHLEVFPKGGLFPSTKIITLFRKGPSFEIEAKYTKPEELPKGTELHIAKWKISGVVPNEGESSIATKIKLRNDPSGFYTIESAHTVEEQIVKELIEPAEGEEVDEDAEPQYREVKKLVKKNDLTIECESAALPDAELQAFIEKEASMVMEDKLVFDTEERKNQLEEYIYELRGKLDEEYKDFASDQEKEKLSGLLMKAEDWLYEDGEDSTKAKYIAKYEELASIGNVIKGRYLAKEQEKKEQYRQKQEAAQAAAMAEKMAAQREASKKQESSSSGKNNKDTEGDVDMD

[3] = biological target: T2, Msi3, the sole Hsp110 in Candida albicans, wild type (Candida albicans, UniProt Q96VB9 1-701); test: fluorescence polarisation
T2 sequence (looked up): T1 sequence (Q96VB9 1-701)

[4] = biological target: T3, Msi3 I164D (Candida albicans, UniProt Q96VB9 1-701, I164D); test: fluorescence polarisation
T3 sequence (looked up): T1 sequence (Q96VB9 1-701) with I164D

[5] = biological target: T4, Msi3 R235E (Candida albicans, UniProt Q96VB9 1-701, R235E); test: fluorescence polarisation
T4 sequence (looked up): T1 sequence (Q96VB9 1-701) with R235E

[6] = biological target: Msi3-Ssa1 complex (Candida albicans | S. cerevisiae, UniProt Q96VB9 1-701; P10591 1-642); test: native gel or EMSA
Sequence of Msi3-Ssa1 complex (P10591 whole entry, one chain of several): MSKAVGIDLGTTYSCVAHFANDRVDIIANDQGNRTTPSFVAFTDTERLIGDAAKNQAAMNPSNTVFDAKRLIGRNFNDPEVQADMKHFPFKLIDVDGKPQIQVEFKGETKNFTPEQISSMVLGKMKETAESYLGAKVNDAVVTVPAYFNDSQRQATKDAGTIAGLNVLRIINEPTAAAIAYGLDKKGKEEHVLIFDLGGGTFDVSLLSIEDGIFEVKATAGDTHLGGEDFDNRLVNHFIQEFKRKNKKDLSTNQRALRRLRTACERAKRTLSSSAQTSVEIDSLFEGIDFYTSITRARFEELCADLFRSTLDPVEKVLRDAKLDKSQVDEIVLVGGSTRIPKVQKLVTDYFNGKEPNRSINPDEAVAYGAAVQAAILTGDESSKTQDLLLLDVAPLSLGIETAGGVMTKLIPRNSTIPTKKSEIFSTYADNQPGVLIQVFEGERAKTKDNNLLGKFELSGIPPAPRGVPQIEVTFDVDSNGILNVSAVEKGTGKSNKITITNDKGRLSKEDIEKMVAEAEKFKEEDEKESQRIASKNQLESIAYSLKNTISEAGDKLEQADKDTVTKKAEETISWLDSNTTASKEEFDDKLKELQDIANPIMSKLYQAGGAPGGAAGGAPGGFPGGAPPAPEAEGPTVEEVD

[7] = biological target: Ssa1, the major Hsp70 in the cytosol of S. cerevisiae (S. cerevisiae, UniProt P10591 1-642); test: native gel or EMSA
Sequence of Ssa1, the major Hsp70 in the cytosol of S. cerevisiae (P10591 whole entry): as the sequence (P10591 whole entry, one chain of several) above

Sequence of Ssa1 (P10591 2-642): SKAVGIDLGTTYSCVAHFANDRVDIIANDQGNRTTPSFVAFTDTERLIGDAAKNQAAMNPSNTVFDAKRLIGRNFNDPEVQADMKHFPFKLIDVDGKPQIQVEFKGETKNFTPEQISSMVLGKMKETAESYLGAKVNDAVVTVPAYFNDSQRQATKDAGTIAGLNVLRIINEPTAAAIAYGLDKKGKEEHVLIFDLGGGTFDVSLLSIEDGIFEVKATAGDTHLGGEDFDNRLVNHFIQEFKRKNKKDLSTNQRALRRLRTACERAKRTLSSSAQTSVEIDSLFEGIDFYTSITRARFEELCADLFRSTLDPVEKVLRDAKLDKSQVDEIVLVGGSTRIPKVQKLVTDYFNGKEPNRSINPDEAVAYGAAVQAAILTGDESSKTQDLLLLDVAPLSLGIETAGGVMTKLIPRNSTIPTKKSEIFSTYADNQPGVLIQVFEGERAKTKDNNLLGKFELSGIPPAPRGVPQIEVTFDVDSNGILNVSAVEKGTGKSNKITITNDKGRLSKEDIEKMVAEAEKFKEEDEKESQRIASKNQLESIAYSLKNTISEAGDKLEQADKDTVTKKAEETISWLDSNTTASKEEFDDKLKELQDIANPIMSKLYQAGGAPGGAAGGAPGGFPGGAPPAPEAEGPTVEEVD

Molecule: Nc1ncnc2c1ncn2[C@@H]1O[C@H](COP(=O)(O)OP(=O)(O)OP(=O)(O)O)[C@@H](O)[C@H]1O [ATP]
- fluorescence polarization, displacement of ATP-FAM [1]: the bound ATP-FAM was slowly replaced by the unlabeled ATP
- limited trypsin digest (ATP-induced conformational change) [2]: two signature proteolytic bands were observed in the presence of ATP for the WT Msi3

B1: TRP2_181 peptide (peptide)
peptide: fluorescein-VYDFFVWLHYY
- binding result [3]: binds
- binding result [4]: binds
- binding result [5]: binds

B2: NR peptide (peptide)
peptide: fluorescein-NRLLLTG
- binding result [6]: binds
- binding result [7]: binds

Reference: article PMC8424595 (The Journal of Biological Chemistry, 2021)
